For assay [1], the target named is T1, Human ANG-2 (huAng2) (human, UniProt O15123 19-496, limits assumed).
T1 construct: also called human Ang2-biotin
T1 sequence (looked up): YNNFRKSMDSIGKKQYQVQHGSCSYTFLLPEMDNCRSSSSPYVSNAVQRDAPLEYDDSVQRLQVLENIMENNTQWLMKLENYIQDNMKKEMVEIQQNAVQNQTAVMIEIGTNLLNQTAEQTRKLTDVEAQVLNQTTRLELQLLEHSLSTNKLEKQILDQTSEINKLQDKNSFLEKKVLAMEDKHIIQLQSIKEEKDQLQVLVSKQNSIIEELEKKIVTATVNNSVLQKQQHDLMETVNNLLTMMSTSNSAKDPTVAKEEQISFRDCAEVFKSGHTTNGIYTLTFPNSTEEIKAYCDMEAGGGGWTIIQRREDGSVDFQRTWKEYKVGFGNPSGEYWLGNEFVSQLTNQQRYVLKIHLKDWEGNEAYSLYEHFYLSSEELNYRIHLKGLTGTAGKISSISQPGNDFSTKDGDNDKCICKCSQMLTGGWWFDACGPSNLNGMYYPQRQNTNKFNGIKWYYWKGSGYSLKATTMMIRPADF
As to the kind of experiment: KinExA equilibrium, alternate model (ref [IgG]). A general note: In KinExA the mixture passes briefly over coated beads that capture the unbound partner.
Experimental: (§1) Human ANG-2 (huAng2) protein was coated onto UltraLink® Biosupport beads (PIERCE, Rockford, Ill.) at concentrations of 5 mg/mL and 30 mg/mL in coating buffer (50 mM sodium carbonate buffer, pH 9). Coated beads were then separated (gentle pulse spin) from unreacted huAng2 protein solution, and blocked with 1M Tris, pH 8, containing BSA at 10 mg/mL) for approximately 15 minutes at room temperature. After this, the bead slurry was spun to remove the blocking solution, and then the block step was repeated for approximately 2 hours using fresh block buffer, and stored at 4° C. until used. Prior to use, the huAng2-coated beads were transferred to a bead vial, resuspended in approximately 27 mLs of instrument buffer (HBS-P buffer, pH 7.4; contains 10 mM HEPES, 0.15M NaCl, 0.005% P20+0.02% NaN3), and affixed to the KinExA instrument. […] These concentrations of bispecific antibody were chosen to allow measurements to be made under both receptor- and KD-controlled conditions, which would allow for more rigorous estimations of reagent activity and affinity, respectively. Two-fold serial dilutions of huAng2 protein were then titrated across nine of the tubes containing the bispecific solutions, followed by 10-fold-dilutions across two more tubes, leaving one tube as the bispecific-only, “zero” control. […]

Assay [2] concerns the target T2, mouse Ang2 (mouse, UniProt O35608 19-496, limits assumed).
T2 sequence (looked up): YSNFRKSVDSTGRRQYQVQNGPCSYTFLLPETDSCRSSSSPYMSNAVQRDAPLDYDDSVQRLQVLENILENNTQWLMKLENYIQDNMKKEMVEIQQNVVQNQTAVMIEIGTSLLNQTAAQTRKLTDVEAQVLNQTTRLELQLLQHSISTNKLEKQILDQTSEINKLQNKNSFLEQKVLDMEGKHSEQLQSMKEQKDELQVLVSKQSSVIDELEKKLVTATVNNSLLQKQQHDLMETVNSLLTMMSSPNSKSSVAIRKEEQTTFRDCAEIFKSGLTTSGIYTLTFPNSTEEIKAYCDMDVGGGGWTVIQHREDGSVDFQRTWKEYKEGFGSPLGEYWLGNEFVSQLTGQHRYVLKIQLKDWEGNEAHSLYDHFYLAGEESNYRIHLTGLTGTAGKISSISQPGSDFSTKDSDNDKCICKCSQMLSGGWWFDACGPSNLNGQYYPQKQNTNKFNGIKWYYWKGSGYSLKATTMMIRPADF
As to the kind of experiment: cell-based or functional assay.

Assay [3] addresses T3, cyno Ang2 (cyno, UniProt A0A2K5VNX6 19-496).
T3 sequence: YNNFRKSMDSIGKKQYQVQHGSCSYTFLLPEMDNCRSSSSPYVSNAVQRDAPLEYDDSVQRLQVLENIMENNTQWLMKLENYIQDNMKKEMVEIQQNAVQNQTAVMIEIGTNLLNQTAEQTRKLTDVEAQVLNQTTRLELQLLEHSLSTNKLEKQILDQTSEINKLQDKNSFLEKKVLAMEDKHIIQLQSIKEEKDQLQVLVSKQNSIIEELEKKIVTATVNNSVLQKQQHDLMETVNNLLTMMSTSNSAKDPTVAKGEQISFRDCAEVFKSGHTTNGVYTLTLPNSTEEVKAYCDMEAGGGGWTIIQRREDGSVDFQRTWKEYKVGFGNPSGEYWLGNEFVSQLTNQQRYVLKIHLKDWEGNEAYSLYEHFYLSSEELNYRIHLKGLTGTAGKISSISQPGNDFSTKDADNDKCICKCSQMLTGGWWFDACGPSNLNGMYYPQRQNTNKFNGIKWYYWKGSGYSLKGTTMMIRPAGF
As to the kind of experiment: cell-based or functional assay.

In assay [4] the target is T1, Human ANG-2 (huAng2). As to the kind of experiment: cell-based or functional assay.
In assay [5] the target is T1, Human ANG-2 (huAng2). As to the kind of experiment: KinExA equilibrium, standard affinity model (ref [Ligand]).
Experimental: as §1

By Kd is commonly meant the free concentration of one partner at which half of the binding sites on the other are occupied at equilibrium, for simple one-to-one binding. Low readings indicate a tighter complex, high ones a looser complex.

B1: BiS3Ab-VEGF H1RK-ANG-2 (bispecific antibody, human IgG1, kappa)
heavy: not shown
light: EIVLTQSPATLSLSPGERATLSCRASQSVHSSYLAWYQQKPGQAPRLLIYGASSRATGIPDRFSGSGSGTDFTLTISRLEPEDFAVYYCQQSYRTPSFGQGTRLEIKRTVAAPSVFIFPPSDEQLKSGTASVVCLLNNFYPREAKVQWKVDNALQSGNSQESVTEQDSKDSTYSLSSTLTLSKADYEKHKVYACEVTHQGLSSPVTKSFNRGEC
notes: Full-length IgG (Fab arm anti-VEGF-A) with an anti-ANG-2 scFv linked to the C-terminus of each heavy chain (BiS3 format); also called BiSAb-VEGF H1RK-ANG-2; Bs3Ab-VEGF-Ang2
In the case of B1, the Kd in assay [1] amounted to 0.00435 nM; in assay [5], 0.0233 nM. In assay [2], the “Mu pTie2 EC50 (nM)” value amounted to 12.2 nM. The “Cyno pTie2 EC50 (nM)” value in assay [3] was 3.47 nM. Moreover, the “Hu pTie2 EC50 (nM), Hek293-Tie2 cells” value in assay [4] worked out at 2.29 nM.

Values taken from patent US20210040194A1 (AstraZeneca / MedImmune, published 2021).
